The target in one assay is HLA-A*02:06. The experiment in a line: IEDB peptide-MHC binding, purified MHC/competitive/fluorescence; filed as Kd, often an IC50 or EC50 that approximates it; ≥ and ≤ were set here for values at or beyond the usual limits of such assays. To be noted: source organism: Human immunodeficiency virus 1.
Assay [1] deals with HLA-A*68:02. Described as above.
Assay [2] addresses HLA-A*02:03. The assay is described as above.
A further assay addresses HLA-B*39:01. The assay is described as above.
The target in a further assay is HLA-A*29:02. The description is as above.
A further assay has as its target HLA-B*18:01. The description is as above.
Another assay has as its target HLA-B*57:01. The assay is described as above.
Assay [3] addresses HLA-B*15:01. The description is as above.
The target of assay [4] is HLA-A*02:12. Described as above.
The target in a further assay is HLA-B*46:01. Described as above.
Assay [5] addresses HLA-A*03:01. Described as above.
The next assay deals with HLA-B*27:03. The assay is described as above.
Assay [6] concerns the target HLA-A*02:01. Described as above.
For a further assay, the target named is HLA-A*26:01. The description is as above.
Assay [7] concerns the target HLA-A*02:19. The description is as above.
For another assay, the target named is HLA-A*24:03. Described as above.
A further assay addresses HLA-B*51:01. The description is as above.
In assay [8] the target is HLA-A*68:02. The experiment in a line: IEDB peptide-MHC binding, purified MHC/direct/fluorescence; filed as Kd, often an IC50 or EC50 that approximates it; ≥ and ≤ were set here for values at or beyond the usual limits of such assays. To be noted: source organism: Orthohantavirus andesense.
For a further assay, the target named is HLA-A*02:11. Described as above. To be noted: source organism: Orthohantavirus andesense.
For assay [9], the target named is HLA-A*02:16. Described as above. To be noted: source organism: Orthohantavirus andesense.
Assay [10] addresses HLA-A*02:03. The assay is described as above. To be noted: source organism: Orthohantavirus andesense.
In assay [11] the target is HLA-A*02:12. The description is as above. The conditions noted are these: source organism: Orthohantavirus andesense.
Assay [12] addresses HLA-A*03:01. Described as above. The conditions noted are these: source organism: Orthohantavirus andesense.
The target of assay [13] is HLA-A*02:19. The description is as above. To be noted: source organism: Orthohantavirus andesense.
Another assay has as its target HLA-A*69:01. The experiment in a line: IEDB peptide-MHC binding, purified MHC/competitive/fluorescence; filed as Kd, often an IC50 or EC50 that approximates it; ≥ and ≤ were set here for values at or beyond the usual limits of such assays.
In a further assay the target is HLA-B*15:17. Described as above.
Another assay deals with HLA-A*30:01. The assay is described as above. The conditions noted are these: source organism: Human immunodeficiency virus 1.
In the next assay the target is HLA-A*01:01. Described as above. The conditions noted are these: source organism: Human immunodeficiency virus 1.
Assay [14] addresses HLA-A*02:16. Described as above. The conditions noted are these: source organism: Burkholderia pseudomallei K96243.
The next assay addresses HLA-B*07:02. As to the kind of experiment: IEDB peptide-MHC binding, purified MHC/competitive/fluorescence; ≥ and ≤ were set here for values at or beyond the usual limits of such assays.
In the next assay the target is HLA-B*08:01. The description is as above.
The target in another assay is HLA-A*24:02. Described as above.
Assay [15] addresses HLA-B*15:01. The assay is described as above. The conditions noted are these: source organism: Zaire ebolavirus.
Assay [16] deals with HLA-A*02:01. The assay is described as above.
Another assay concerns the target HLA-A*31:01. The experiment in a line: IEDB peptide-MHC binding, purified MHC/competitive/fluorescence; filed as Kd, often an IC50 or EC50 that approximates it; ≥ and ≤ were set here for values at or beyond the usual limits of such assays. To be noted: source organism: Human immunodeficiency virus 1.
[17] abbreviates: source organism: Human immunodeficiency virus 1.
Where [18] appears, read: source organism: Entamoeba dispar SAW760.
Where [19] appears, read: source organism: Orthohantavirus andesense.
[20] abbreviates: source organism: Vaccinia virus.
The mark [21] stands for this setting: source organism: Zaire ebolavirus.
[22] abbreviates: source organism: Cryptosporidium parvum Iowa II.
Where [23] appears, read: source organism: Vaccinia virus Copenhagen.

EELRSLFNTI: the values for the dissociation constant Kd in the assay with HLA-A*02:06, with HLA-A*68:02 [1] (setting [17]) and in the assay with HLA-A*02:03 [2] (setting [17]) were 1.14 µM, at least 20 µM and at least 20 µM, respectively.

For the sequence LVGNTLTTC, the Kd with HLA-B*39:01 (setting [18]), with HLA-A*29:02 (setting [18]), with HLA-B*18:01 (setting [18]), with HLA-A*02:03 [2] (setting [18]), with HLA-B*57:01 (setting [18]) and with HLA-B*15:01 [3] (setting [18]) was at least 20 µM throughout. The Kd (usually a measure of binding affinity in units of concentration) was 4.55 µM in the assay with HLA-A*02:12 [4] (setting [18]); at least 20 µM with HLA-B*46:01 (setting [18]); at least 20 µM with HLA-A*03:01 [5] (setting [18]); at least 20 µM in the assay with HLA-B*27:03 (setting [18]); at least 20 µM with HLA-A*02:01 [6] (setting [18]); at least 20 µM with HLA-A*26:01 (setting [18]). For the same sequence, the Kd with HLA-A*02:19 [7] (setting [18]), with HLA-A*24:03 (setting [18]) and in the assay with HLA-B*51:01 (setting [18]) was at least 20 µM each time.

On to VWKQLFPEL, for which the Kd in the assay with HLA-A*68:02 [8], with HLA-A*02:11, with HLA-A*02:16 [9], in the assay with HLA-A*02:03 [10], with HLA-A*02:12 [11] and in the assay with HLA-A*03:01 [12] was at least 20 µM throughout. The Kd in the assay with HLA-A*02:19 [13], with HLA-B*39:01 (setting [19]), with HLA-B*18:01 (setting [19]), with HLA-B*57:01 (setting [19]), with HLA-B*46:01 (setting [19]) and in the assay with HLA-B*27:03 (setting [19]) was at least 20 µM in each case. Also, the Kd with HLA-A*69:01 (setting [19]) was at least 20 µM; with HLA-A*02:01 [6] (setting [19]), at least 20 µM; with HLA-A*26:01 (setting [19]) it was at least 20 µM; with HLA-A*24:03 (setting [19]), 0.0105 µM; with HLA-B*51:01 (setting [19]), at least 20 µM; in the assay with HLA-B*15:17 (setting [19]), at least 20 µM.

Consider KSLYNTVATLY, for which the dissociation constant Kd in the assay with HLA-A*30:01 was at least 20 µM; with HLA-B*18:01 (setting [17]), at least 20 µM; with HLA-A*02:03 [2] (setting [17]) it was at least 20 µM; with HLA-B*57:01 (setting [17]), 0.959 µM; with HLA-B*15:01 [3] (setting [17]), at least 20 µM; in the assay with HLA-A*01:01, at least 20 µM. Besides, the Kd in the assay with HLA-B*15:17 (setting [17]) is 0.0064 µM.

For the sequence ELAKPWPGA, the Kd with HLA-A*02:16 [14] is at least 20 µM; with HLA-A*02:01 [6] (source organism: Burkholderia pseudomallei K96243), 1.21 µM.

In the case of INPIVKTSL, the IC50 (usually the concentration that gives 50% inhibition) with HLA-B*07:02 (setting [20]) was 21.1 µM; with HLA-B*08:01 (setting [20]), at least 88.4 µM.

FSILNRKAI: the IC50 is 5.56 µM with HLA-A*24:02 (setting [21]); 35.8 µM in the assay with HLA-B*15:01 [15]; at least 235 µM with HLA-A*02:01 [16] (setting [21]); 46.5 µM with HLA-B*07:02 (setting [21]); 21.6 µM with HLA-B*08:01 (setting [21]).

For KIFKVTGEF, the Kd is at least 20 µM with HLA-A*68:02 [1] (setting [22]); at least 20 µM with HLA-B*39:01 (setting [22]); 0.735 µM with HLA-A*29:02 (setting [22]); at least 20 µM with HLA-B*18:01 (setting [22]); at least 20 µM with HLA-A*02:03 [2] (setting [22]); at least 20 µM in the assay with HLA-A*02:12 [4] (setting [22]). The Kd with HLA-A*03:01 [5] (setting [22]), with HLA-B*27:03 (setting [22]), with HLA-A*69:01 (setting [22]), with HLA-A*02:01 [6] (setting [22]), with HLA-A*26:01 (setting [22]) and with HLA-A*02:19 [7] (setting [22]) was at least 20 µM throughout. In the assay with HLA-B*51:01 (setting [22]), this sequence showed an equilibrium dissociation constant (Kd) of at least 20 µM.

For the sequence EELRSLFNTV, the Kd with HLA-A*02:06 was found to be 0.302 µM; with HLA-A*68:02 [1] (setting [17]), 0.325 µM; in the assay with HLA-A*69:01 (setting [17]), 0.301 µM.

With TFALKKLII, the half-maximal inhibitory concentration (IC50) with HLA-A*24:02 (setting [23]) is 0.323 µM; with HLA-A*02:01 [16] (setting [23]), at least 131 µM; with HLA-B*08:01 (setting [23]), at least 132 µM.

Turning to EKLKSLFNTI, the Kd in the assay with HLA-A*31:01 was at least 20 µM; with HLA-A*30:01, 0.0207 µM; with HLA-A*02:06, 0.00183 µM; in the assay with HLA-A*68:02 [1] (setting [17]), at least 20 µM; with HLA-B*39:01 (setting [17]), 0.641 µM; with HLA-A*02:03 [2] (setting [17]) it was 0.0368 µM. For the same sequence, the Kd with HLA-A*02:01 [6] (setting [17]) is at least 20 µM.

For the sequence DFHERPVIL, the half-inhibitory concentration (IC50) is 0.0313 µM with HLA-A*24:02 (source organism: Variola virus) and at least 88.5 µM with HLA-B*08:01 (source organism: Variola virus).

In the case of VRQRVIPVY, the IC50 is 23.4 µM with HLA-A*24:02 (setting [21]), 3.26 µM with HLA-B*15:01 [15], at least 524 µM with HLA-A*02:01 [16] (setting [21]) and at least 210 µM in the assay with HLA-B*08:01 (setting [21]).

The values above are taken from the Immune Epitope Database (IEDB).
